{
  "source": "patent US20180099015A1",
  "about": "(ADCURE BIOTECHNOLOGIES, published 2018)",
  "key": {"[1]": {"target": "blood coagulation factor X (UniProt P00742)", "sequence (P00742 41-488 limits assumed)": "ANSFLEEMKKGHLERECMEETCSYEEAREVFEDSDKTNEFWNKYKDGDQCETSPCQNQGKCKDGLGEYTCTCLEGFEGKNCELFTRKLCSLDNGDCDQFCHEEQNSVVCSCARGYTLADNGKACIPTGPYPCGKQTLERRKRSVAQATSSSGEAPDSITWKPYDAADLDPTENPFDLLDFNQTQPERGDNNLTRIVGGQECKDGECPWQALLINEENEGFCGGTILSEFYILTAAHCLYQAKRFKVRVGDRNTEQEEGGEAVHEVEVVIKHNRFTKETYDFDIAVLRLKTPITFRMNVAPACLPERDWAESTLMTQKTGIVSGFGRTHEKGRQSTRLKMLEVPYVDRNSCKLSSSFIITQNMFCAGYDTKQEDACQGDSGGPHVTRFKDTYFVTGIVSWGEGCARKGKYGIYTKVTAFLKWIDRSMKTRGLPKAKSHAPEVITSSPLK", "experiment": "FX binding to immobilised virus (2900 RU); method not given, SPR (Biacore) named for FIG. 14B"}, "sCAR": {"target": "T1, sCAR (UniProt P78310 20-237)", "T1 construct": "also called soluble coxsackievirus and Ad receptor (CAR)", "T1 sequence": "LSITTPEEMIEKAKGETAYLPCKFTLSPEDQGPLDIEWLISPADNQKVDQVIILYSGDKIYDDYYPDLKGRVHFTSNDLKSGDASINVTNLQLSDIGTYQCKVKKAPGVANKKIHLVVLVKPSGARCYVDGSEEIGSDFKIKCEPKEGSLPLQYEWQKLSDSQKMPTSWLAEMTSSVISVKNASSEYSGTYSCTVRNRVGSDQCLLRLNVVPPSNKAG", "experiment": "not stated; row marked with an asterisk that has no footnote"}},
  "data": [
    {"molecule": "human adenovirus serotype 4 (Ad4), virus particle (from UniProt P49810)", "values": [
      {"measurement": "Kd", "setting": "[1]", "result": 2480, "unit": "nM"}
    ]},
    {"molecule": "Ad12 partner of the row Ad12-sCAR* (other) SNTPYDPLTLWTTPDPPPNCSLIQELDAKLTLCLTKNGSIVNGIVSLVGVKGNLLNIQSTTTTVGVHLVFDEQGRLITSTPTALVPQASWGYRQGQSVSTNTVTNGLGFMPNVSAYPRPNASEAKSQMVSLTYLQGDTSKPITMKVAFNGITSLNGYSLTFMWSGLSNYINQPFSTPSCSFSYITQE", "values": [
      {"measurement": "Kd", "setting": "sCAR", "result": 15, "unit": "nM"}
    ]},
    {"molecule": "Ad5 partner of the row Ad5-sCAR* (other) GAITVGNKNNDKLTLWTTPAPSPNCRLNAEKDAKLTLVLTKCGSQILATVSVLAVKGSLAPISGTVQSAHLIIRFDENGVLLNNSFLDPEYWNFRNGDLTEGTAYTNAVGFMPNLSAYPKSHGKTAKSNIVSQVYLNGDKTKPVTLTITLNGTQETGDTTPSAYSMSFSWDWSGHNYINEIFATSSYTFSYIAQE", "values": [
      {"measurement": "Kd", "setting": "sCAR", "result": 7.9, "unit": "nM"}
    ]}
  ]
}
